Measurements as given in FireProtDB (doi:10.1002/pro.5560041207).

Conditions: Cereibacter sphaeroides, pH 7.4, 23 °C, Urea, Fluorescence, whole UniProt chain shown

B1: Thioredoxin wild type, P08058 (protein)
chain: MSTVPVTDATFDTEVRKSDVPVVVDFWAEWCGPCRQIGPALEELSKEYAGKVKIVKVNVDENPESPAMLGVRGIPALFLFKNGQVVSNKVGAAPKAALATWIASAL
- unfolding free energy (Potassium phosphate 20 mM): 8.2 kcal/mol
- unfolding free energy (Potassium phosphate 20mM): 8.13 kcal/mol
